Experiments:
[1] = molecular target: cyno MSLN (Macaca fascicularis); experiment: BLI (Octet), bsAb in 1+1 Fab-scFv-Fc format
[2] = molecular target: human mesothelin (MSLN) (human) (UniProt Q13421); experiment: BLI (Octet), bsAb in 1+1 Fab-scFv-Fc format

Row | Binder | Kd [1] | Response [1] | koff [1] | kon [1] | Kd [2] | Response [2] | koff [2] | kon [2]
1 | XENP31701 (bispecific antibody, part only; not given: anti-CD3 scFv-Fc arm, constant regions, V domains shown, not shown: another chain or arm of the molecule; a dimerising Fc or GST; small tags and cut ends) VH: QVQLVQSGAEVKKPGASVKVSCKASGYTFTSYWMHWVRQAPGQGLEWMGMIHPNSDNTIYYEKFQGRVTMTVDKSISTAYMELSRLRSDDTAVYYCAIIITPVVPKFDYWGQGTLVTVSS VL: DIVMTQSPDSLAVSLGERATINCKASHDVGTSVAWYQQKPGQSPKLLIYWASTRHTGVPDRFTGSGSGTDFTLTISSLQAEDVAVYFCQQYSSYPLTFGAGTKLEIK | 0.0938 nM | 0.737 | 5.74e-05 s⁻¹ | 612000 M⁻¹ s⁻¹ | 0.0805 nM | 0.86 | 4.69e-05 s⁻¹ | 583000 M⁻¹ s⁻¹
2 | XENP32557 (bispecific antibody, part only; not given: anti-CD3 scFv-Fc arm, constant regions, V domains shown, not shown: another chain or arm of the molecule; a dimerising Fc or GST; small tags and cut ends) VH: QVQLVQSGAEVKKPGASVKVSCKASGYTFTSYWMHWVRQAPGQGLEWMGMIHPNSDNTIYYEKFQGRVTMTVDKSISTAYMELSRLRSDDTAVYYCAIIISPVVPKFDYWGQGTLVTVSS VL: DIVMTQSPDSLAVSLGERATINCKASHDVGTSVAWYQQKPGQSPKLLIYWASTRHTGVPDRFTGSGSGTDFTLTISSLQAEDVAVYFCQQYSSYPLTFGAGTKLEIK | 0.62 nM | 1.09 | 0.000321 s⁻¹ | 518000 M⁻¹ s⁻¹ | 0.721 nM | 1.15 | 0.000374 s⁻¹ | 519000 M⁻¹ s⁻¹
3 | XENP32564 (bispecific antibody, part only; not given: anti-CD3 scFv-Fc arm, constant regions, V domains shown, not shown: another chain or arm of the molecule; a dimerising Fc or GST; small tags and cut ends) VH: QVQLVQSGAEVKKPGASVKVSCKASGYTFTSYWMHWVRQAPGQGLEWMGMIHPNSDNTIYYEKFQGRVTMTVDKSISTAYMELSRLRSDDTAVYYCAIIITPVVPKFDYWGQGTLVTVSS VL: DIVMTQSPDSLAVSLGERATINCKASHDVGTSLAWYQQKPGQSPKLLIYWASTRHTGVPDRFTGSGSGTDFTLTISSLQAEDVAVYFCQQYSSYPLTFGAGTKLEIK | 0.0297 nM | 0.849 | 2.01e-05 s⁻¹ | 676000 M⁻¹ s⁻¹ | 0.0861 nM | 0.952 | 5.68e-05 s⁻¹ | 660000 M⁻¹ s⁻¹
4 | XENP32566 (bispecific antibody, part only; not given: anti-CD3 scFv-Fc arm, constant regions, V domains shown, not shown: another chain or arm of the molecule; a dimerising Fc or GST; small tags and cut ends) VH: QVQLVQSGAEVKKPGASVKVSCKASGYTFTSYWMHWVRQAPGQGLEWMGMIHPNSDNTIYYEKFQGRVTMTVDKSISTAYMELSRLRSDDTAVYYCAIIITPVVPKFDYWGQGTLVTVSS VL: DIVMTQSPDSLAVSLGERATINCKASHDVGTSVAWYQQKPGQSPKLLIYWASTRHSGVPDRFTGSGSGTDFTLTISSLQAEDVAVYFCQQYSSYPLTFGAGTKLEIK | 0.163 nM | 0.941 | 0.0001 s⁻¹ | 616000 M⁻¹ s⁻¹ | 0.18 nM | 1.05 | 0.000113 s⁻¹ | 627000 M⁻¹ s⁻¹
5 | XENP32565 (bispecific antibody, part only; not given: anti-CD3 scFv-Fc arm, constant regions, V domains shown, not shown: another chain or arm of the molecule; a dimerising Fc or GST; small tags and cut ends) VH: QVQLVQSGAEVKKPGASVKVSCKASGYTFTSYWMHWVRQAPGQGLEWMGMIHPNSDNTIYYEKFQGRVTMTVDKSISTAYMELSRLRSDDTAVYYCAIIITPVVPKFDYWGQGTLVTVSS VL: DIVMTQSPDSLAVSLGERATINCKASHDVGTSVAWYQQKPGQSPKLLIYWASTRETGVPDRFTGSGSGTDFTLTISSLQAEDVAVYFCQQYSSYPLTFGAGTKLEIK | 0.255 nM | 1 | 0.000151 s⁻¹ | 592000 M⁻¹ s⁻¹ | 0.286 nM | 1.11 | 0.000169 s⁻¹ | 590000 M⁻¹ s⁻¹
6 | XENP32570 (bispecific antibody, part only; not given: anti-CD3 scFv-Fc arm, constant regions, V domains shown, not shown: another chain or arm of the molecule; a dimerising Fc or GST; small tags and cut ends) VH: QVQLVQSGAEVKKPGASVKVSCKASGYTFTSYWMHWVRQAPGQGLEWMGMIHPNSGNTIYYEKFQGRVTMTVDKSISTAYMELSRLRSDDTAVYYCAIIITPVVPKFDYWGQGTLVTVSS VL: DIVMTQSPDSLAVSLGERATINCKASHSVGTSVAWYQQKPGQSPKLLIYWASTRHTGVPDRFTGSGSGTDFTLTISSLQAEDVAVYFCQQYSSYPLTFGAGTKLEIK | 0.155 nM | 0.95 | 0.000105 s⁻¹ | 676000 M⁻¹ s⁻¹ | 0.103 nM | 0.981 | 7.35e-05 s⁻¹ | 717000 M⁻¹ s⁻¹
7 | XENP32569 (bispecific antibody, part only; not given: anti-CD3 scFv-Fc arm, constant regions, V domains shown, not shown: another chain or arm of the molecule; a dimerising Fc or GST; small tags and cut ends) VH: QVQLVQSGAEVKKPGASVKVSCKASGYTFTSYWMHWVRQAPGQGLEWMGMIHPQSDNTIYYEKFQGRVTMTVDKSISTAYMELSRLRSDDTAVYYCAIIITPVVPKFDYWGQGTLVTVSS VL: DIVMTQSPDSLAVSLGERATINCKASHSVGTSVAWYQQKPGQSPKLLIYWASTRHTGVPDRFTGSGSGTDFTLTISSLQAEDVAVYFCQQYSSYPLTFGAGTKLEIK | 0.189 nM | 0.867 | 0.000125 s⁻¹ | 660000 M⁻¹ s⁻¹ | 0.135 nM | 0.978 | 9.35e-05 s⁻¹ | 693000 M⁻¹ s⁻¹
8 | XENP32555 (bispecific antibody, part only; not given: anti-CD3 scFv-Fc arm, constant regions, V domains shown, not shown: another chain or arm of the molecule; a dimerising Fc or GST; small tags and cut ends) VH: QVQLVQSGAEVKKPGASVKVSCKASGYTFTSYWMHWVRQAPGQGLEWMGMIHPNSGNTIYYEKFQGRVTMTVDKSISTAYMELSRLRSDDTAVYYCAIIITPVVPKFDYWGQGTLVTVSS VL: DIVMTQSPDSLAVSLGERATINCKASHDVGTSVAWYQQKPGQSPKLLIYWASTRHTGVPDRFTGSGSGTDFTLTISSLQAEDVAVYFCQQYSSYPLTFGAGTKLEIK | 0.603 nM | 1.11 | 0.000342 s⁻¹ | 566000 M⁻¹ s⁻¹ | 0.684 nM | 1.23 | 0.000375 s⁻¹ | 549000 M⁻¹ s⁻¹
9 | XENP32559 (bispecific antibody, part only; not given: anti-CD3 scFv-Fc arm, constant regions, V domains shown, not shown: another chain or arm of the molecule; a dimerising Fc or GST; small tags and cut ends) VH: QVQLVQSGAEVKKPGASVKVSCKASGYTFTSYWMHWVRQAPGQGLEWMGMIHPNSDNTIYYEKFQGRVTMTVDKSISTAYMELSRLRSDDTAVYYCAIIITPVVPKFDYWGQGTLVTVSS VL: DIVMTQSPDSLAVSLGERATINCKSSHDVGTSVAWYQQKPGQSPKLLIYWASTRHTGVPDRFTGSGSGTDFTLTISSLQAEDVAVYFCQQYSSYPLTFGAGTKLEIK | 0.223 nM | 1.04 | 0.000128 s⁻¹ | 575000 M⁻¹ s⁻¹ | 0.283 nM | 1.11 | 0.000161 s⁻¹ | 569000 M⁻¹ s⁻¹
10 | XENP32554 (bispecific antibody, part only; not given: anti-CD3 scFv-Fc arm, constant regions, V domains shown, not shown: another chain or arm of the molecule; a dimerising Fc or GST) VH: QVQLVQSGAEVKKPGASVKVSCKASGYTFTSYWMHWVRQAPGQGLEWMGMIHPQSDNTIYYEKFQGRVTMTVDKSISTAYMELSRLRSDDTAVYYCAIIITPVVPKFDYWGQGTLVTVSS VL: DIVMTQSPDSLAVSLGERATINCKASHDVGTSVAWYQQKPGQSPKLLIYWASTRHTGVPDRFTGSGSGTDFTLTISSLQAEDVAVYFCQQYSSYPLTFGAGTKLEIK | 0.414 nM | 1.03 | 0.00023 s⁻¹ | 555000 M⁻¹ s⁻¹ | 0.483 nM | 1.13 | 0.000268 s⁻¹ | 555000 M⁻¹ s⁻¹
11 | XENP32556 (bispecific antibody, part only; not given: anti-CD3 scFv-Fc arm, constant regions, V domains shown, not shown: another chain or arm of the molecule; a dimerising Fc or GST; small tags and cut ends) VH: QVQLVQSGAEVKKPGASVKVSCKASGYTFTSYWMHWVRQAPGQGLEWMGMIHPNSDNTIYYEKFQGRVTMTVDKSISTAYMELSRLRSDDTAVYYCARIITPVVPKFDYWGQGTLVTVSS VL: DIVMTQSPDSLAVSLGERATINCKASHDVGTSVAWYQQKPGQSPKLLIYWASTRHTGVPDRFTGSGSGTDFTLTISSLQAEDVAVYFCQQYSSYPLTFGAGTKLEIK | 0.395 nM | 1.07 | 0.000157 s⁻¹ | 399000 M⁻¹ s⁻¹ | 0.469 nM | 1.18 | 0.000199 s⁻¹ | 425000 M⁻¹ s⁻¹
12 | XENP32550 (bispecific antibody, part only; not given: anti-CD3 scFv-Fc arm, constant regions, V domains shown, not shown: another chain or arm of the molecule; a dimerising Fc or GST; small tags and cut ends) VH: QVQLVQSGAEVKKPGASVKVSCKASGYTFTGYWMHWVRQAPGQGLEWMGMIHPNSDNTIYYEKFQGRVTMTVDKSISTAYMELSRLRSDDTAVYYCAIIITPVVPKFDYWGQGTLVTVSS VL: DIVMTQSPDSLAVSLGERATINCKASHDVGTSVAWYQQKPGQSPKLLIYWASTRHTGVPDRFTGSGSGTDFTLTISSLQAEDVAVYFCQQYSSYPLTFGAGTKLEIK | 0.254 nM | 0.891 | 0.000146 s⁻¹ | 576000 M⁻¹ s⁻¹ | 0.601 nM | 1.02 | 0.000314 s⁻¹ | 522000 M⁻¹ s⁻¹
13 | XENP32553 (bispecific antibody, part only; not given: anti-CD3 scFv-Fc arm, constant regions, V domains shown, not shown: another chain or arm of the molecule; a dimerising Fc or GST; small tags and cut ends) VH: QVQLVQSGAEVKKPGASVKVSCKASGYTFTSYWMHWVRQAPGQGLEWMGMINPNSDNTIYYEKFQGRVTMTVDKSISTAYMELSRLRSDDTAVYYCAIIITPVVPKFDYWGQGTLVTVSS VL: DIVMTQSPDSLAVSLGERATINCKASHDVGTSVAWYQQKPGQSPKLLIYWASTRHTGVPDRFTGSGSGTDFTLTISSLQAEDVAVYFCQQYSSYPLTFGAGTKLEIK | 0.585 nM | 1.06 | 0.000337 s⁻¹ | 575000 M⁻¹ s⁻¹ | 0.687 nM | 1.16 | 0.00037 s⁻¹ | 539000 M⁻¹ s⁻¹
14 | XENP32551 (bispecific antibody, part only; not given: anti-CD3 scFv-Fc arm, constant regions, V domains shown, not shown: another chain or arm of the molecule; a dimerising Fc or GST; small tags and cut ends) VH: QVQLVQSGAEVKKPGASVKVSCKASGYTFTSYYMHWVRQAPGQGLEWMGMIHPNSDNTIYYEKFQGRVTMTVDKSISTAYMELSRLRSDDTAVYYCAIIITPVVPKFDYWGQGTLVTVSS VL: DIVMTQSPDSLAVSLGERATINCKASHDVGTSVAWYQQKPGQSPKLLIYWASTRHTGVPDRFTGSGSGTDFTLTISSLQAEDVAVYFCQQYSSYPLTFGAGTKLEIK | 1.66 nM | 1.1 | 0.000822 s⁻¹ | 495000 M⁻¹ s⁻¹ | 1.6 nM | 1.19 | 0.000773 s⁻¹ | 483000 M⁻¹ s⁻¹
15 | XENP32558 (bispecific antibody, part only; not given: anti-CD3 scFv-Fc arm, constant regions, V domains shown, not shown: another chain or arm of the molecule; a dimerising Fc or GST; small tags and cut ends) VH: QVQLVQSGAEVKKPGASVKVSCKASGYTFTSYWMHWVRQAPGQGLEWMGMIHPNSDNTIYYEKFQGRVTMTVDKSISTAYMELSRLRSDDTAVYYCAIIITPVVPRFDYWGQGTLVTVSS VL: DIVMTQSPDSLAVSLGERATINCKASHDVGTSVAWYQQKPGQSPKLLIYWASTRHTGVPDRFTGSGSGTDFTLTISSLQAEDVAVYFCQQYSSYPLTFGAGTKLEIK | 0.7 nM | 1.11 | 0.000166 s⁻¹ | 238000 M⁻¹ s⁻¹ | 0.795 nM | 1.17 | 0.000198 s⁻¹ | 249000 M⁻¹ s⁻¹
16 | XENP32568 (bispecific antibody, part only; not given: anti-CD3 scFv-Fc arm, constant regions, V domains shown, not shown: another chain or arm of the molecule; a dimerising Fc or GST; small tags and cut ends) VH: QVQLVQSGAEVKKPGASVKVSCKASGYTFTSYWMHWVRQAPGQGLEWMGMIHPNSDNTIYYEKFQGRVTMTVDKSISTAYMELSRLRSDDTAVYYCAIIITPVVPKFDYWGQGTLVTVSS VL: DIVMTQSPDSLAVSLGERATINCKASHDVGTSVAWYQQKPGQSPKLLIYWASTRHTGVPDRFTGSGSGTDFTLTISSLQAEDVAVYFCQQYSSTPLTFGAGTKLEIK | – | 0.0728 | – | – | – | 0.107 | – | –
